{
  "source": "paper PMC4409540",
  "about": "(Nature, 2015)",
  "proteins": {"B1": {"name": "MBP-tagged human TRPA1 (full-length) (natural protein, UniProt O75762 1-1119, looked up)", "chain": "MKRSLRKMWRPGEKKEPQGVVYEDVPDDTEDFKESLKVVFEGSAYGLQNFNKQKKLKRCDDMDTFFLHYAAAEGQIELMEKITRDSSLEVLHEMDDYGNTPLHCAVEKNQIESVKFLLSRGANPNLRNFNMMAPLHIAVQGMNNEVMKVLLEHRTIDVNLEGENGNTAVIIACTTNNSEALQILLKKGAKPCKSNKWGCFPIHQAAFSGSKECMEIILRFGEEHGYSRQLHINFMNNGKATPLHLAVQNGDLEMIKMCLDNGAQIDPVEKGRCTAIHFAATQGATEIVKLMISSYSGSVDIVNTTDGCHETMLHRASLFDHHELADYLISVGADINKIDSEGRSPLILATASASWNIVNLLLSKGAQVDIKDNFGRNFLHLTVQQPYGLKNLRPEFMQMQQIKELVMDEDNDGCTPLHYACRQGGPGSVNNLLGFNVSIHSKSKDKKSPLHFAASYGRINTCQRLLQDISDTRLLNEGDLHGMTPLHLAAKNGHDKVVQLLLKKGALFLSDHNGWTALHHASMGGYTQTMKVILDTNLKCTDRLDEDGNTALHFAAREGHAKAVALLLSHNADIVLNKQQASFLHLALHNKRKEVVLTIIRSKRWDECLKIFSHNSPGNKCPITEMIEYLPECMKVLLDFCMLHSTEDKSCRDYYIEYNFKYLQCPLEFTKKTPTQDVIYEPLTALNAMVQNNRIELLNHPVCKEYLLMKWLAYGFRAHMMNLGSYCLGLIPMTILVVNIKPGMAFNSTGIINETSDHSEILDTTNSYLIKTCMILVFLSSIFGYCKEAGQIFQQKRNYFMDISNVLEWIIYTTGIIFVLPLFVEIPAHLQWQCGAIAVYFYWMNFLLYLQRFENCGIFIVMLEVILKTLLRSTVVFIFLLLAFGLSFYILLNLQDPFSSPLLSIIQTFSMMLGDINYRESFLEPYLRNELAHPVLSFAQLVSFTIFVPIVLMNLLIGLAVGDIAEVQKHASLKRIAMQVELHTSLEKKLPLWFLRKVDQKSTIVYPNKPRSGGMLFHIFCFLFCTGEIRQEIPNADKSLEMEILKQKYRLKDLTFLLEKQHELIKLIIQKMEIISETEDDDSHCSFQDRFKKEQMEQRNSRWNTVLRAVKAKTHHLEP"}},
  "target": "the molecule itself",
  "assay": "cryo-EM structure",
  "data": [
    {"protein": "B1", "values": [
      {"measurement": "stoichiometry N", "result": 4}
    ]}
  ]
}
